In article PMC5098251 (Scientific Reports, 2016):
Where a chain is given by its changes, count along the chain named. Numbers in names are those of the source.

B1: A07a scFv (scFv, V domains shown)
VH: QLQLQESGPGLVKPSETLSLTCTVPGASISANSYYGVWVRQSPGKGLEWVGSIAYRGNSNSGSTYYNPSLKGRATVSVDTSKNQVSLRLTSVTAADTALYYCARRQLLDDGTGYQWAAFDNWDQGTMVTVSS
VL: QSVLTQPPSVSEAPRQTVTISCSGNSFNIGRYPVNWYQQLPGKAPKLLIYSNNLRFSGVSDRFSGSKSGTSASLAIRDLLSEDEADYYCSTWDDTLKGWVFGGGTKVTVL
B2: Ep6b_B01 IgG (antibody, V domains shown)
VH: B1 VH with P25S, G72S, T80S, N121V, D123G
VL: B1 VL with F27S, N52D, S60P, S71T, K97E
notes: numbers count on: Kabat numbering; IgG heavy constant region; light constant region; IgG
B3: Ep6b_B01 scFv (scFv, V domains shown)
VH: B1 VH with P25S, G72S, T80S, N121V, D123G
VL: B1 VL with F27S, N52D, S60P, S71T, K97E
notes: numbers count on: Kabat numbering; scFv linker, as in m6
B4: SNAP-E09 scFv-HA (scFv, V domains shown)
VH: B1 VH with P25S, G72S, N121V, D123G
VL: B1 VL with S51Y
notes: VH: as the VH of m6 (E09); scFv linker, as in m6; VL: as the VL of m6 (E09); 47 kDa fusion; The parent vector pIVEX-SNAP-GFP holds the R30I mutant of the SNAP-tag; also called SNAP-scFv-HA; parent; source: in vitro translated (PURExpress), captured on BG-DNA-coated streptavidin beads; not shown: SNAP-tag, N-terminal, kept; HA, C-terminal, kept
B5: SNAP-A09a scFv-HA (scFv, V domains shown)
VH: B1 VH with S7P, V12T, N32D, G72S, N121V, D123G
VL: B1 VL with S51H
notes: numbers count on: Kabat numbering; scFv linker, as in m6; On-bead form of m13; not shown: SNAP-tag, N-terminal, kept; HA, C-terminal, kept
B6: SNAP-A07a scFv-HA (scFv, V domains shown)
VH: B1 VH
VL: B1 VL
notes: numbers count on: Kabat numbering; scFv linker, as in m6; On-bead form of m15; not shown: SNAP-tag, N-terminal, kept; HA, C-terminal, kept
B7: SNAP-E09_Y58S scFv-HA (scFv, V domains shown)
VH: B1 VH with P25S, Y65S, G72S, N121V, D123G
VL: B1 VL with S51Y
notes: whole scFv (VH, linker, VL) as in m3 (E09) with Y58S; not shown: SNAP-tag, N-terminal, kept; HA, C-terminal, kept
B8: E09 IgG (antibody, V domains shown)
VH: B1 VH with P25S, G72S, N121V, D123G
VL: B1 VL with S51Y
notes: VH: as the VH of m6 (E09); IgG heavy constant region; VL: as the VL of m6 (E09); light constant region; IgG; also called parent
B9: SNAP-Ep6b_B01 scFv-HA (scFv, V domains shown)
VH: B1 VH with P25S, G72S, T80S, N121V, D123G
VL: B1 VL with F27S, N52D, S60P, S71T, K97E
notes: numbers count on: Kabat numbering; scFv linker, as in m6; not shown: SNAP-tag, N-terminal, kept; HA, C-terminal, kept
B10: E09 scFv with the single mutation VL Y50S (scFv, V domains shown)
VH: B1 VH with P25S, G72S, N121V, D123G
VL: B1 VL
notes: VH: as the VH of m6 (E09); scFv linker, as in m6; numbers count on: Kabat numbering; Made by site-directed mutagenesis of E09 in pCantab6
B11: A09a scFv (scFv, V domains shown)
VH: B1 VH with S7P, V12T, N32D, G72S, N121V, D123G
VL: B1 VL with S51H
notes: numbers count on: Kabat numbering; scFv linker, as in m6; Selected by BeSD, round IV
B12: E09 scFv with the single mutation VH S25P (scFv, V domains shown)
VH: B1 VH with G72S, N121V, D123G
VL: B1 VL with S51Y
notes: numbers count on: Kabat numbering; scFv linker, as in m6; VL: as the VL of m6 (E09); Made by site-directed mutagenesis of E09 in pCantab6
B13: R4aS IgG (antibody, V domains shown)
VH: B1 VH with G72S
VL: B1 VL with I29T, F56L, K97E
notes: numbers count on: Kabat numbering; IgG heavy constant region; light constant region; IgG; also called antibody R4aS
B14: A03a scFv (scFv, V domains shown)
VH: B1 VH with K45R, G72S, Q106R
VL: B1 VL with P7S, I29T, F56L, K97E
notes: as for B11
B15: A01b scFv (scFv, V domains shown)
VH: B1 VH with V39I, G72S, Q84R, N121V, D123G, S131P
VL: B1 VL with A13V, S51H
notes: as for B11
B16: R4aS scFv (scFv, V domains shown)
VH: B1 VH with G72S
VL: B1 VL with I29T, F56L, K97E
B17: A07a IgG (antibody, V domains shown)
VH: B1 VH
VL: B1 VL
notes: numbers count on: Kabat numbering; IgG heavy constant region; light constant region; IgG made from the scFv A07a
B18: SNAP-A11b scFv-HA (scFv, V domains shown)
VH: B1 VH with G72S, N121V, D123G, S132G
VL: B1 VL with I29T, F56L, K97E
notes: numbers count on: Kabat numbering; scFv linker, as in m6; On-bead form of m14; not shown: SNAP-tag, N-terminal, kept; HA, C-terminal, kept
B19: A05a scFv (scFv, V domains shown)
VH: B1 VH with G8S, L20I, G72S, N121V, D123G
VL: B1 VL with S51H
notes: numbers count on: Kabat numbering; scFv linker, as in m6; Most abundant variant of round IV; the same as the Clade 2 consensus R4aH; also called R4aH
B20: anti-Fas receptor scFv E09 (scFv, V domains shown)
VH: B1 VH with P25S, G72S, N121V, D123G
VL: B1 VL with S51Y
notes: VH of E09; scFv linker; VL of E09; also called parent; wild-type E09
B21: A11b scFv (scFv, V domains shown)
VH: B1 VH with G72S, N121V, D123G, S132G
VL: B1 VL with I29T, F56L, K97E
notes: as for B11
B22: SNAP-A01b scFv-HA (scFv, V domains shown)
VH: B1 VH with V39I, G72S, Q84R, N121V, D123G, S131P
VL: B1 VL with A13V, S51H
notes: numbers count on: Kabat numbering; scFv linker, as in m6; On-bead form of m10; not shown: SNAP-tag, N-terminal, kept; HA, C-terminal, kept
B23: SNAP-A03a scFv-HA (scFv, V domains shown)
VH: B1 VH with K45R, G72S, Q106R
VL: B1 VL with P7S, I29T, F56L, K97E
notes: numbers count on: Kabat numbering; scFv linker, as in m6; On-bead form of m11; not shown: SNAP-tag, N-terminal, kept; HA, C-terminal, kept

Assays:
recombinant human FasR [1] = molecular target: T1, recombinant human FasR (Homo sapiens, UniProt P25445); assay: BLI; Octet Red384; recombinant human FasR; 1:1 Langmuir model; at least in duplicate; who was immobilised is not told (Supplementary Protocols 8-10)
T1 construct: Fas receptor (FasR, CD95), human, recombinant; The FasR of the BLI and SPR experiments; Details are in Supplementary Protocols 8-10; also called recombinant FasR
T1 sequence (P25445 26-335): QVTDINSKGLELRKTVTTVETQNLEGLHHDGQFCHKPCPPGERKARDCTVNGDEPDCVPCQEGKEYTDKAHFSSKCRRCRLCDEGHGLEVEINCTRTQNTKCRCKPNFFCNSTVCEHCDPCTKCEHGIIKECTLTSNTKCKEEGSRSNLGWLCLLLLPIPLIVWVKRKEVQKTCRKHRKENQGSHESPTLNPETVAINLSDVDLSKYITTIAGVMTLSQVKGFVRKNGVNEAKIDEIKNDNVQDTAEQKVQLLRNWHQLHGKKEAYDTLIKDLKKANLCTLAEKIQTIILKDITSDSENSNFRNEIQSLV

recombinant human FasR [2] = molecular target: T1, recombinant human FasR; assay: SPR; BIAcore T100; low density IgG-coated chip surface, recombinant human FasR; 1:1 Langmuir model; at least in duplicate; details: both partners purified
recombinant human FasR [3] = molecular target: T1, recombinant human FasR; assay: BLI; Octet Red384; recombinant human FasR; 1:1 Langmuir model; at least in duplicate; who was immobilised is not told (Supplementary Protocols 8-10); details: both partners purified
[4] = molecular target: T2, FasR-Fc (Fc-fused Fas receptor) (Homo sapiens, UniProt P25445); assay: on-bead equilibrium titration read by flow cytometry (Bead Surface Display); apparent; Fas-Fc titrated against beads displaying SNAP-scFv-HA; normalised median fluorescence fitted to a saturation binding curve; details: one partner purified
T2 construct: Fas receptor (FasR, CD95), human; also called Fas-Fc; CD95; source: bought: R&D Systems
T2 sequence (P25445 26-173): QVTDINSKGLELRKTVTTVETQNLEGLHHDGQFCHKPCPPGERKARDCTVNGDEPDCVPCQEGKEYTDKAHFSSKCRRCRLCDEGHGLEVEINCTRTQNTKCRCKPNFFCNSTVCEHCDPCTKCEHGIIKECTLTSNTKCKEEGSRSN

[5] = molecular target: T2, FasR-Fc (Fc-fused Fas receptor); assay: on-bead binding assay read by flow cytometry (Bead Surface Display); SNAP-scFv-HA made by in vitro transcription/translation and held on streptavidin beads through BG-DNA anchors; beads incubated 1 h at room temperature with FasR-Fc (1 nM unless stated; 1, 10 and 30 nM in Fig. 2B), then with DyLight488-labelled goat anti-Fc; 1.5% marvel in PBS, washes with PBS and 0.05% Tween 20; details: one partner purified
recombinant human FasR [6] = molecular target: T1, recombinant human FasR; assay: BLI; Octet Red384; recombinant human FasR; 1:1 Langmuir model; at least in duplicate; who was immobilised is not told (Supplementary Protocols 8-10); details: both partners purified; remark: listed apart in the source

Row | Binder | Kd (recombinant human FasR [3]) [nM] | koff (recombinant human FasR [3]) [s⁻¹] | kon (recombinant human FasR [3]) [M⁻¹ s⁻¹] | other results
1 | B1 |  |  |  | Kd (recombinant human FasR [1]): 0.4 nM; koff (recombinant human FasR [1]): 5.6e-05 s⁻¹; kon (recombinant human FasR [1]): 162000 M⁻¹ s⁻¹
2 | B2 | 0.23 | 5.9e-05 | 402000 | Kd (recombinant human FasR [2]): 0.06 nM; koff (recombinant human FasR [2]): 4.4e-05 s⁻¹; kon (recombinant human FasR [2]): 746000 M⁻¹ s⁻¹
3 | B3 | 0.71 | 0.000125 | 214000 | 
4 | B4 |  |  |  | Kd [4]: 4.3 ± 0.3 nM; fold signal increase over the background (FasR at 1 nM) [5]: > 1250 fold
5 | B5 |  |  |  | fold increase of MFS over E09 [5]: > 2 fold
6 | B6 |  |  |  | fold increase of MFS over E09 [5]: > 2 fold
7 | B7 |  |  |  | binding result [5]: binds
8 | B8 | 15.7 | 0.00266 | 236000 | Kd (recombinant human FasR [2]): 13.7 nM; koff (recombinant human FasR [2]): 0.00239 s⁻¹; kon (recombinant human FasR [2]): 174000 M⁻¹ s⁻¹
9 | B9 |  |  |  | fold MFS over E09_Y58S (1 nM antigen) [5]: 8.4 fold; fold MFS over E09_Y58S (30 nM antigen) [5]: 1.8 fold
10 | B10 |  |  |  | fold increase in affinity over the parent scFv E09 (Kd) (recombinant human FasR [6]): 4 fold
11 | B11 | 2.63 | 0.00029 | 147000 | 
12 | B12 |  |  |  | fold increase in affinity over the parent scFv E09 (Kd) (recombinant human FasR [6]): 4 fold
13 | B13 | 0.09 | 1.2e-05 | 249000 | Kd (recombinant human FasR [2]): 0.14 nM; koff (recombinant human FasR [2]): 3.8e-05 s⁻¹; kon (recombinant human FasR [2]): 282000 M⁻¹ s⁻¹
14 | B14 | 1.09 | 0.000181 | 240000 | 
15 | B15 | 2.15 | 0.000272 | 168000 | 
16 | B16 |  |  |  | Kd (recombinant human FasR [1]): 0.38 nM; koff (recombinant human FasR [1]): 4.5e-05 s⁻¹; kon (recombinant human FasR [1]): 117000 M⁻¹ s⁻¹
17 | B17 | 1.02 | 0.000171 | 277000 | Kd (recombinant human FasR [2]): 0.29 nM; koff (recombinant human FasR [2]): 6.7e-05 s⁻¹; kon (recombinant human FasR [2]): 230000 M⁻¹ s⁻¹
18 | B18 |  |  |  | fold increase of MFS over E09 [5]: > 2 fold
19 | B19 | 2.89 | 0.00039 | 153000 | 
20 | B20 | 7.6 | 0.000956 | 236000 | 
21 | B21 | 1.09 | 0.000111 | 130000 | 
22 | B22 |  |  |  | fold increase of MFS over E09 [5]: > 2 fold
23 | B23 |  |  |  | fold increase of MFS over E09 [5]: > 2 fold
